Results reported in patent publication US20230203471A1, “METHOD AND PLATFORM FOR DISRUPTING INTRACELLULAR MICROTUBULES” (National Tsing Hua University, priority 2021, published 2023).

Key:
[1] = tested on: intracellular microtubules in HeLa cells; assay: Live-cell imaging of MT disruption (MT filament area) in transfected HeLa cells; assay type: cell-based
Experimental: The procedures of live-cell imaging are as follows. Live transfected cells cultured on poly(d-lysine)-coated glass coverslips (Hecht Assistent) were treated with either 100 nM rapamycin for rapid induction of protein dimerization and translocation or MT-targeting agents (10 µM nocodazole or 500 µM colchicine) during imaging. Live-cell imaging was conducted on a Nikon T1 inverted fluorescence microscope (Nikon) with a 60× oil objective (Nikon), a Prime camera (Photometrics), and 37° C., 5% CO2 heat stage (Live Cell Instrument). Rapid recruitment of proteins of interest (POIs) was imaged at 5- or 10-sec intervals, whereas the process of MT disruption was imaged at 1-min intervals. Images were obtained using Nikon NIS-Elements AR software and processed with Huygens Deconvolution Software (Scientific Volume Imaging). Image analysis was mainly performed with Nikon NIS-Elements AR software.
The procedures of measurement of MT filament area are as follows. The MT filaments in living cells were labeled with EMTB-CFP-FRB and imaged in real time (RAW image). The rolling ball correction was used to remove the cytosol background from the RAW images, which was carried out with the Nikon NIS-Elements AR software. Images were processed to generate the binary MT filament pattern via the Otsu threshold and analyzed by Fiji software.
FIGS. 2D and 2E show rapidly recruiting engineered spastins onto MTs. […] The top three layers are cells that simultaneously express EMTB-CFP-FRB and dNSpastin3Q-YFP-FKBP. The lower three layers are cells that simultaneously express EMTB-CFP-FRB and dNSpastin-YFP-FKBP-C2Lact. The color bar on the right indicates the brightness value represented by the color of the FRET signal. […] Data are shown as the mean ± S.E.M. It was noteworthy that MT disruption triggered by dNSpastin3Q-YFP-FKBP upon rapamycin treatment (T½ = 11.05 ± 1.52 min) was much faster than that of dNSpastin-YFP-FKBP-C2Lact upon rapamycin treatment (T½ = 53.08 ± 8.08 min), and treatment of two common MTAs, nocodazole (10 µM; T½ = 54.02 ± 10.29 min), colchicine (500 µM; T½ = 94.28 ± 8.63 min; see FIGS. 2F to 2J). […] In FIG. 2H, HeLa cells transfected with the indicated constructs were treated with nocodazole (Noc)([…], a type of MTA), colchicine (Col)(500 µM, a type of MTA), or rapamycin (Rapa)(100 nM); scale bar, 10 µm. […] Data are shown as the mean ± S.E.M. Student’s t-tests were performed, with the resulting p-values indicated.

[2] = molecular target: MT-binding domain of ensconsin-cyan fluorescent protein-FKBP-rapamycin binding domain (EMTB-CFP-FRB) (Artificial Sequence); assay: FRET live-cell imaging in co-transfected HeLa cells, 100 nM rapamycin
[3] = tested on: EMTB-YFP-CIBN-labeled MTs in COS7 cells; assay: Blue-light-induced recruitment of Cry2 proteins onto EMTB-YFP-CIBN-labeled MTs and MT disassembly; assay type: cell-based, African green monkey
Experimental: The procedures of photostimulation are as follows. COS7 cells were plated on poly(d-lysine)-coated coverslips and cultured in six-well plates (Thermo Scientific) for 48 hr. Before imaging, cells were incubated with SPY650-tubulin (1000-fold dilution; Spirochrome) at 37° C. for 1 hr. Local photostimulation was carried out with a fluorescence microscope (Nikon) equipped with a digital micromirror device, polygon 400 (MIGHTEX), and a 488-nm light source. Cells were illuminated with the blue light (5 sec on/1 sec off; 1.6 nW/µm^2) for the indicated duration. The mCherry and SPY650-tubulin were simultaneously imaged during photostimulation using Nikon element AR software.
The inventors next tried to use an optogenetic system to trigger MT disassembly in a sub-cellular region of interest during a specific period of time. Cryptochrome 2 (Cry2) (SEQ ID NO:14) and CIBN (N-terminal 170 amino acids of CIB1) (SEQ ID NO:15), two blue light-sensitive dimerizing partners, were used in our MT-manipulating system. Cry2, which was tagged with the red fluorescent protein mCherry (mCh—Cry2), was rapidly translocated onto EMTB—YFP—CIBN-labeled MTs only in regions illuminated with light (T½ = 34.6 ± 7.58 sec) and dissociated from MTs to the cytosol when the light was off (T½ = 28.2 ± 4.88 sec; see FIGS. 6A and 6B).
FIGS. 6A and 6B show using light to disassemble MTs in a reversible and location-specific manner. In FIG. 6A, COS7 cells co-transfected with EMTB—YFP—CIBN and mCh—Cry2 (red) were incubated with SPY650-tubulin (SPY650-tub) to visualize MTs; the cells were illuminated by blue light within a specified region (indicated by the dotted circle) for the indicated time period; scale bar, 10 µm.
The inventors then used light to control spastin-mediated MT disassembly in a spatially and temporally specific manner. dNSpastin3Q tagged with mCh-Cry2 was co-expressed with EMTB—YFP—CIBN in COS7 cells. MTs were labeled with SPY650-tubulin in these experiments.
FIGS. 6C and 6D show using light to disassemble MTs in a reversible and location-specific manner. In FIG. 6C, COS7 cells co-transfected with EMTB-YFP-CIBN and dNSpastin3Q-mCh—Cry2 were incubated with SPY650-tubulin to visualize MTs; the cells were illuminated by blue light as in FIG. 6A; scale bar, 10 µm. […] Data are shown as the mean ± S.E.M.

[4] = molecular target: intracellular microtubules (MTs)
[5] = tested on: cytosolic MTs in HeLa cells; assay: Immunofluorescence staining of α-tubulin in HeLa cells expressing spastin constructs; assay type: cell-based; conditions: expression in HeLa cells, α-tubulin intensity
Experimental: The procedures of immunofluorescence staining are as follows. Cells cultured in borosilicate glass Lab-Tek eight-well chambers (Nunc) were fixed in 4% paraformaldehyde (Electron Microscopy Sciences) at room temperature for 15 min. Fixed cells were permeabilized with 0.1% Triton X-100 and then incubated in blocking solution (phosphate-buffered saline with 2% bovine serum albumin) for 30 min at room temperature. To label cytosolic MTs, primary ciliary membrane, and axonemal MTs, cells were incubated for 1 hr at room temperature with mouse antibody against α-tubulin (1:500; Sigma Aldrich, T6199), rabbit antibody against Arl13b (1:500; Proteintech, 17711-1-AP), mouse antibody against glutamylated tubulin (1:100; Adipogen, AG-20B-0020-C100), mouse antibody against acetylated tubulin (1:500; Sigma Aldrich, T7451), rat antibody against tyrosinated tubulin (1:100; Sigma Aldrich, MAB1864), and mouse antibody against detyrosinated tubulin (1:100; MERCK, AB3201) each of which was diluted in blocking solution. Cells were then washed with PBS and incubated for 1 hr with appropriate secondary antibodies (1:1000 dilution; Thermo Fisher) at room temperature.
Spastin is a MT-cleaving enzyme that is ubiquitous in nearly all eukaryotic cells. Expression of full-length spastin (SpastinFL-YFP; the amino acid sequence of spastin is SEQ ID NO: 1) and truncated spastin without the N-terminal 1-140 amino acids (dNSpastin-YFP) in HeLa cells removed significant amounts of cytosolic MTs, 47.45% and 42.86%, respectively, relative to YFP-transfected control cells (See FIGS. 2A to 2C). This means that both full-length spastin and truncated spastin without N-terminal 1-140 amino acids have the effect on disrupting microtubules. FIGS. 2A to 2C show the microtubule cleavage activity of artificially engineered spastin enzyme. […] The dotted line on the right indicates the periphery of the cell that expresses spastin. […] SpastinFL expressed in cells can disrupt the intracellular microtubules. Making SpastinFL be located in the cytosol, truncated spastin would also disrupt the intracellular microtubules, so it would also be located in the cytosol. […] The truncated spastin is used in the subsequent experiments. […] Compared with the YFP control group, both SpastinFL-YFP and dNSpastrin-YFP can disrupt about 40% of the microtubules. Thus the N-terminal fragment (1-140 amino acids) was dispensable for Spastin-mediated MT severing. […]

MT-binding domain of ensconsin-cyan fluorescent protein-FKBP-rapamycin binding domain (EMTB-CFP-FRB) (Artificial Sequence), sequence (chain, as listed by the source): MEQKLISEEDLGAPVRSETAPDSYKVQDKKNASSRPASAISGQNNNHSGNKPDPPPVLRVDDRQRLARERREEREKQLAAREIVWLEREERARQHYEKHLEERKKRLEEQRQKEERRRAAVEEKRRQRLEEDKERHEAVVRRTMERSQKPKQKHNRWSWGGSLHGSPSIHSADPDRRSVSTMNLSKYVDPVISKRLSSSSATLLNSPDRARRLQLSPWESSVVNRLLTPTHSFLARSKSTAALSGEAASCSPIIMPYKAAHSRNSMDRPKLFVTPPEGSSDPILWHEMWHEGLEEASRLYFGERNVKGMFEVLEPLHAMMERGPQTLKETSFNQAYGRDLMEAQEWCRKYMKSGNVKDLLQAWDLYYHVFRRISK

COc1cc2c(c(OC)c1OC)-c1ccc(OC)c(=O)cc1[C@@H](NC(C)=O)CC2 [colchicine]
microtubules removed within one hour ([1]; 500 µM colchicine): 49% | time required to disrupt half of the intracellular microtubules ([1]; colchicine 500 µM): 94.28 ± 8.63 min | T½ of MT disruption ([1]; colchicine 500 µM, HeLa cells): 1.571 ± 0.144 h

yellow fluorescent protein-tagged FKBP (YFP-FKBP)
T½ of translocation [2]: 5.73 s

B1: dNSpastin3Q-mCh—Cry2: dNSpastin3Q tagged with mCh-Cry2 (protein)
chain: MESGAVPKRKDPLTHASNSLPRSKTVLKSGSAGLSGHHRAPSCSGLSMVSGARPGPGPAATTHKGTPKPNRTNKPSTPTTAVRQQQDLKNFRNVDSNLANLIMNEIVDNGTAVKFDDIAGQELAKQALQEIVILPSLRPELFTGLRAPARGLLLFGPPGNGKTMLAKAVAAESNATFFNISAASLTSKYVGEGEKLVRALFAVARELQPSIIFIDEVDSLLCERREGEHDASRRLKTEFLIEFDGVQSAGDDRVLVMGATNRPQELDEAVLRRFIKRVYVSLPNEETRLLLLKNLLCKQGSPLTQKELAQLARMTDGYSGSDLTALAKDAALGPIRELKPEQVKNMSASEMRNIRLSDFTESLKKIKRSVSPQTLEAYIRWNKDFGDTTVMKMDKKTIVWFRRDLRIEDNPALAAAAHEGSVFPVFIWCPEEEGQFYPGRASRWWMKQSLAHLSQSLKALGSDLTLIKTHNTISAILDCIRVTGATKVVFNHLYDPVSLVRDHTVKEKLVERGISVQSYNGDLLYEPWEIYCEKGKPFTSFNSYWKKCLDMSIESVMLPPPWRLMPITAAAEAIWACSIEELGLENEAEKPSNALLTRAWSPGWSNADKLLNEFIEKQLIDYAKNSKKVVGNSTSLLSPYLHFGEISVRHVFQCARMKQIIWARDKNSEGEESADLFLRGIGLREYSRYICFNFPFTHEQSLLSHLRFFPWDADVDKFKAWRQGRTGYPLVDAGMRELRATGWMHNRIRVIVSSFAVKFLLLPWKWGMKYFWDTLLDADLECDILGWQYISGSIPDGHELDRLDNPALQGAKYDPEGEYIRQWLPELARLPTEWIHHPWDAPLTVLKASGVELGTNYAKPIVDIDTARELLAKAISRTREAQIMIGAA
reversibility in the dark ([3]; COS7 cells placed back in the dark): MT reassembly occurred | light-induced MT disassembly ([3]; COS7 cells, local blue light illumination, SPY650-tubulin): disassembly of MTs only in illuminated regions

B2: YFP-tagged truncated spastin without the N-terminal 1-140 amino acids (dNSpastin-YFP) (enzyme)
chain: MESGAVPKRKDPLTHASNSLPRSKTVLKSGSAGLSGHHRAPSCSGLSMVSGARPGPGPAATTHKGTPKPNRTNKPSTPTTAVRKKKDLKNFRNVDSNLANLIMNEIVDNGTAVKFDDIAGQELAKQALQEIVILPSLRPELFTGLRAPARGLLLFGPPGNGKTMLAKAVAAESNATFFNISAASLTSKYVGEGEKLVRALFAVARELQPSIIFIDEVDSLLCERREGEHDASRRLKTEFLIEFDGVQSAGDDRVLVMGATNRPQELDEAVLRRFIKRVYVSLPNEETRLLLLKNLLCKQGSPLTQKELAQLARMTDGYSGSDLTALAKDAALGPIRELKPEQVKNMSASEMRNIRLSDFTESLKKIKRSVSPQTLEAYIRWNKDFGDTTV
removal of cytosolic MTs (normalized intensity of α-tubulin) [4]: 42.9% | cytosolic MTs removed relative to YFP-transfected control cells [5]: 42.86% | cytosolic MTs removed relative to YFP-transfected control cells ([5]; listed as dNSpastrin-YFP): about 40%

B3: YFP-tagged full-length spastin (SpastinFL-YFP) (enzyme)
chain: MAAKRSSGTAPAPASPSPPAPGPGGEAESVRVFHKQAFEYISIALRIDEEEKGQKEQAVEWYKKGIEELEKGIAVIVTGQGEQYERARRLQAKMMTNLVMAKDRLQLLEKLQPVLQFSKSQTDVYNESTNLTCRNGHLQSESGAVPKRKDPLTHASNSLPRSKTVLKSGSAGLSGHHRAPSCSGLSMVSGARPGPGPAATTHKGTPKPNRTNKPSTPTTAVRKKKDLKNFRNVDSNLANLIMNEIVDNGTAVKFDDIAGQELAKQALQEIVILPSLRPELFTGLRAPARGLLLFGPPGNGKTMLAKAVAAESNATFFNISAASLTSKYVGEGEKLVRALFAVARELQPSIIFIDEVDSLLCERREGEHDASRRLKTEFLIEFDGVQSAGDDRVLVMGATNRPQELDEAVLRRFIKRVYVSLPNEETRLLLLKNLLCKQGSPLTQKELAQLARMTDGYSGSDLTALAKDAALGPIRELKPEQVKNMSASEMRNIRLSDFTESLKKIKRSVSPQTLEAYIRWNKDFGDTTV
removal of cytosolic MTs (normalized intensity of α-tubulin) [4]: 47.5%
